Numbering of substitutions follows the chain as printed.
Assays:
[1] = target: T1, NV VP1 G365N/V370I double mutant (Norwalk virus, UniProt Q83884 1-530); assay: immunofluorescence on transfected Vero cells
T1 construct: whole, on cells; Expressed in transfected Vero cells, methanol-fixed, immunofluorescence
T1 sequence (looked up): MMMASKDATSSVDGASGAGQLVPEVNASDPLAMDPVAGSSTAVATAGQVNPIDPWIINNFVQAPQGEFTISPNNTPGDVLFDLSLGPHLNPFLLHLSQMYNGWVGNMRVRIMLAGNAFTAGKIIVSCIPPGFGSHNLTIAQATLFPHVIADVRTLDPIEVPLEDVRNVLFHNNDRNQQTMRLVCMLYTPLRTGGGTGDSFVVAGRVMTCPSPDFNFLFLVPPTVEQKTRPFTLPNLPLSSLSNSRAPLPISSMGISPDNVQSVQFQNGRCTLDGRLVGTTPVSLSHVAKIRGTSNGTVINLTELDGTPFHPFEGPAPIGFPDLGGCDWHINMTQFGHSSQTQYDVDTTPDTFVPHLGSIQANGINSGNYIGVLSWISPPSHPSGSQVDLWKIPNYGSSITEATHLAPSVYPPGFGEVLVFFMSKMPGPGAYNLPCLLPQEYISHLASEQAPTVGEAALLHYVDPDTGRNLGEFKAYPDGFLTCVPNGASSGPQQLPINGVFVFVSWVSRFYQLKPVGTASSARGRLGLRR

[2] = target: T2, NV VP1 G365N/V370I/I376V triple mutant (Norwalk virus, UniProt Q83884 1-530); assay: immunofluorescence on transfected Vero cells
T2 construct: whole, on cells; Expressed in transfected Vero cells, methanol-fixed, immunofluorescence
T2 sequence (looked up): T1 sequence (looked up) with I376V

NV VP1 G365N mutant = target: T3, NV VP1 G365N mutant (Norwalk virus, UniProt Q83884 1-530); assay: immunofluorescence on transfected Vero cells
T3 construct: whole, on cells; Expressed in transfected Vero cells, methanol-fixed, immunofluorescence
T3 sequence (looked up): T1 sequence (looked up) with I370V

[3] = target: T4, NV VP1 G365N/I376V double mutant (Norwalk virus, UniProt Q83884 1-530); assay: immunofluorescence on transfected Vero cells
T4 construct: whole, on cells; Expressed in transfected Vero cells, methanol-fixed, immunofluorescence
T4 sequence (looked up): T1 sequence (looked up) with I370V, I376V

bovine serum albumin = target: T5, bovine serum albumin (bovine, UniProt P02769 25-607); assay: ELISA, antigen on the solid phase, soluble Fab
T5 construct: Control antigen; also called BSA

[4] = target: T6, Norwalk virus (NV, GI.1) recombinant virus-like particles (capsid protein VP1) (Norwalk virus, UniProt Q83884 1-530); assay: SPR (Biacore 1000), NV rVLP amine-coupled to CM5 chip, Fab as analyte 1-10 nM, Langmuir model
T6 construct: also called NV rVLP; NV-VLP
T6 sequence: T1 sequence (looked up) with N365G, I370V

T5 sequence (P02769 25-607 limits assumed): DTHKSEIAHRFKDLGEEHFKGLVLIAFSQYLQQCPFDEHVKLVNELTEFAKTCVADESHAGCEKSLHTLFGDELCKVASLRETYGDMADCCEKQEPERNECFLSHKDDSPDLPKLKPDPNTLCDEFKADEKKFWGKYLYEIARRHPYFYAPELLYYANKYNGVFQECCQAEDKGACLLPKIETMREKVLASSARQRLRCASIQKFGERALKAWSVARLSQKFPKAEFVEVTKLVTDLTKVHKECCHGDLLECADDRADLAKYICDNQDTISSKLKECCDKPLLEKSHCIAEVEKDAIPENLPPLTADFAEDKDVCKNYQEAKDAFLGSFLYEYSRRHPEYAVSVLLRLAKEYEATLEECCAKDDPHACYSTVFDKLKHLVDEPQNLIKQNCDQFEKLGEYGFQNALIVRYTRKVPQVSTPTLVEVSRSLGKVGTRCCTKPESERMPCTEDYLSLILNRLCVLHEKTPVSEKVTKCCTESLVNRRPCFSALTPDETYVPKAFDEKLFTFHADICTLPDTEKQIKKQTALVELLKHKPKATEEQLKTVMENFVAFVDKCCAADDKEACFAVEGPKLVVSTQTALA

B1: anti-NV Fab G4 (Fab, V domains shown)
VH: EVQLEESGGGLVKPGGSLRLSCAASGFTFSHYVMYWVRQAPEKGLEWVSTISGSGSSTWYPDSVKGRFTVSRDNSKNTLYLQMNSLRGDDTAVYYCARLQGQLVYWGLGTLVTVS
VL: ELQMTQSPSTLSASVGDRVTITCRASQGISSWLAWYQQKPGRAPKLLIYKSSTLESGVPSRFSGSGSGTEFTLTISSLQPDDFATYFCQQYSSNPPLTFGGGTKVEIKR
notes: also called Norwalk Fab G4
[1]
  binding result: no binding (tested: 5 ug/mL)
[2]
  binding result: no binding (tested: 5 ug/mL)
NV VP1 G365N mutant
  binding result: no binding (tested: 5 ug/mL)
[3]
  binding result: no binding (tested: 5 ug/mL)
Bovine serum albumin
  binding result: no binding
[4]
  Kd: 974 pM
  koff: 0.00142 s⁻¹
  kon: 1.46e+06 M⁻¹ s⁻¹

— patent US20160009788A1 (UNITED STATES OF AMERICA AS REPRESENTED BY THE SECRETARY …, published 2016)
